Reference: paper PMC4731787, “Structural basis for the recognition of two consecutive mutually interacting DPF motifs by the SGIP1 μ homology domain” (Scientific Reports, 2016)
Like-named read-outs stand apart in the source and are kept apart here.

T1: SGIP1 μHD (residues 552 to 828) (Homo sapiens, UniProt Q9BQI5)
T1 construct: the SGIP1 μHD (residues 552 to 828); GST (N, cleaved yes); made in house; host or cells: Escherichia coli BL21-Gold (DE3) or Rosetta2
T1 sequence (Q9BQI5 552-828): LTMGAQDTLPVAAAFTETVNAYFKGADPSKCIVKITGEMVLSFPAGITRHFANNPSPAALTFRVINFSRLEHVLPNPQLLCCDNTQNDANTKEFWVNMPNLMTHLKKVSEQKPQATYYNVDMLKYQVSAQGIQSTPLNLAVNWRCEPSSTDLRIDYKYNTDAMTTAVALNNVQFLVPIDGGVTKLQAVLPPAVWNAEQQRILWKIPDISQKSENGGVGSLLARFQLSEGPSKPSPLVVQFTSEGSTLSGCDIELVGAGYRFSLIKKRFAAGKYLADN

T2: FCHo1 µHD (residues 623 to 889) (Homo sapiens, UniProt O14526)
T2 construct: GST (N, cleaved yes); made in house; host or cells: Escherichia coli (as for the SGIP1 μHD)
T2 sequence (O14526 623-889): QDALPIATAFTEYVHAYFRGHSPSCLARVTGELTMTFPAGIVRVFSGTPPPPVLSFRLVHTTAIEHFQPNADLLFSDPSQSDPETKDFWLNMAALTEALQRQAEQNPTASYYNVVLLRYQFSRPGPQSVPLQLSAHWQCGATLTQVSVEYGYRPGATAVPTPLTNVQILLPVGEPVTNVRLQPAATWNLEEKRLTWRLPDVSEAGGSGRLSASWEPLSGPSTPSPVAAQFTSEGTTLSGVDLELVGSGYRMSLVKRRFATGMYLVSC

T3: SGIP1 μ homology domain (residues 552 to 828) (human, UniProt Q9BQI5-1 552-828)
T3 construct: A SeMet-substituted form (E. coli B834(DE3)) was used only for the structure of the domain alone; also called SGIP1 μHD; μHD; source: E. coli BL21-Gold (DE3) or Rosetta2, purified (Glutathione Sepharose, 3C protease cleavage on the column, Superdex 200)
T3 sequence (looked up): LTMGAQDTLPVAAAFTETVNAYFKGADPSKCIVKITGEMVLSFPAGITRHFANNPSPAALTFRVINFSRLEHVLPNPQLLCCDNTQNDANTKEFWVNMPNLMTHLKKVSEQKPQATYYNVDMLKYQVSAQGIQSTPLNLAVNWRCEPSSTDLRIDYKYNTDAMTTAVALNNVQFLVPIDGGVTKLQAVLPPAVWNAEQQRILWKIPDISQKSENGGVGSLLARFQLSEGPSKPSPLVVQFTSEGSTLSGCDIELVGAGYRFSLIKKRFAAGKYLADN


Tests used:
[1] = target: T1, SGIP1 μHD (residues 552 to 828); assay: ITC of Eps15 fragments with the SGIP1 μHD; type: binding; conditions: for Kd / -TΔS / ΔG / ΔH / -TΔS, second site / ΔG, second site / ΔH, second site: 25 °C; for Kd: 50 mM Tris-HCl pH 8.0, 50 mM NaCl, global fit of two runs; for -TΔS / ΔG / ΔH / -TΔS, second site / ΔG, second site / ΔH, second site / N (binding ratio of Eps15 fragment to μHD) / N, second site: fragment in cell titrated with μHD; for N, second site: second site (N identical for both sites)
Experimental: (§1) For the majority of the ITC experiments, the SGIP1 μHD, its mutants, or the FCHo1 μHD, in 50 mM Tris-HCl buffer (pH 8.0) containing 50 mM NaCl, was loaded in the sample cell, in a volume of 1.42 ml, and titrated with various Eps15-derived fragments or peptides in the same buffer, with an initial 5 μl injection and subsequent 10 μl injections, for a total of 25 injections. The titrations were performed while the samples were stirred at 310 r.p.m. at 25 °C. Each injection was followed by an interval of 4 min, to allow baseline stabilization. For the other ITC experiments indicated in Supplementary Table 2, the Eps15-derived fragments or peptides in the sample cell were titrated with the SGIP1 or FCHo1 μHD. All ITC experiments were performed on a VP-ITC microcalorimeter (MicroCal, LLC) and repeated twice, and the data were processed with the program NITPIC[42]. The two data sets from each ITC experiment were analyzed by global weighted least-squares fitting with the program SEDPHAT[43]. Figures for the ITC data were created with the program GUSSI (http://biophysics.swmed.edu/MBR/software.html). To obtain the values of the traditional stoichiometric parameter N in our ITC data analyses (Supplementary Table 2), we used the values of the parameters of the incompetent fractions of proteins and ligands. […] The values of the incompetent fractions are between 0 and 1, whereas the other parameter affecting the traditional parameter N, the number of sites, was fixed as 1 and 2, for the single- and two-site models, respectively. Thus, in the two-site model, the values of N for the first and second sites are identical in our ITC data analyses (Supplementary Table 2).

[2] = target: T2, FCHo1 µHD (residues 623 to 889); assay: ITC of Eps15 fragments with the FCHo1 μHD; type: binding; conditions: for Kd / -TΔS / ΔG / ΔH: 25 °C; for Kd: 50 mM Tris-HCl pH 8.0, 50 mM NaCl, global fit of two runs; for Kd / -TΔS / ΔG / ΔH / N (binding ratio of Eps15 fragment to FCHo1 μHD): single-site model; for Kd / ΔH / N (binding ratio of Eps15 fragment to FCHo1 μHD): ± 68.3% confidence interval
Experimental: as §1

[3] = target: α-adaptin appendage domain (residues 711 to 955); assay: ITC of Eps15 fragments with the α-adaptin appendage domain; type: binding, human
[4] = target: T3, SGIP1 μ homology domain (residues 552 …); assay: ITC; VP-ITC, 25 °C, 50 mM Tris-HCl pH 8.0, 50 mM NaCl; for the majority the μHD (SGIP1, its mutants or FCHo1) in the cell, titrated with Eps15 fragments or peptides, for others the reverse (Supplementary Table 2); repeated twice, global fit with SEDPHAT, single-site or two-site model; conditions: both partners purified
[5] = Eps15 fragment in cell titrated with SGIP1 μHD, two-site model, second site, 68.3% confidence interval, read-out: Kd, second site
[6] = Eps15 fragment in sample cell titrated with SGIP1 μHD, single-site model, ± 68.3% confidence interval, read-out: Kd
[7] = single-site model, ± 68.3% confidence interval
[8] = two-site model, first site, ± 68.3% confidence interval
[9] = two-site model, second site, 68.3% confidence interval
[10] = two-site model, first site (N identical for both sites), ± 68.3% confidence interval
[11] = two-site model, ± 68.3% confidence interval
[12] = FCHo1 μHD in cell titrated with fragment
[13] = fragment in cell titrated with μHD (Experiment 37a)

Molecule | Kd [1, 5] [µM] | Kd [1, 6] [µM] | -TΔS ([1]; single-site model) [kJ/mol] | ΔG ([1]; single-site model) [kJ/mol] | ΔH [1, 7] [kJ/mol] | -TΔS ([1]; two-site model, first site) [kJ/mol] | ΔG ([1]; two-site model, first site) [kJ/mol] | ΔH [1, 8] [kJ/mol] | -TΔS, second site ([1]; two-site model, second site) [kJ/mol] | ΔG, second site ([1]; two-site model, second site) [kJ/mol] | ΔH, second site [1, 9] | N (binding ratio of Eps15 fragment to μHD) [1, 7] | N (binding ratio of Eps15 fragment to μHD) [1, 10] | N, second site [1, 11] | also measured
Eps15-618–654: Eps15 fragment, 37-residue region containing six consecutive DPF motifs; high-affinity binding site (DFFQSDPFVGSDPFKDDPFGKIDPFGGDPFKGSDPFA; UniProt P42566 618-654, looked up, fragment) | 55.5 | 0.42 ± 0.25 | 1.16 | -36.42 | -37.58 ± 2.67 | -9.811 | -41.02 | -31.21 ± 0.703 | 15.57 | -24.71 | -9628 (< -6103) cal/mol | 0.81 ± 0.04 | 0.88 ± 0.02 | 0.88 ± 0.02 | Strength of affinity ([1]; human SGIP1 µHD (aa552–828), Supplementary Table 3, This study): high; Kd for the FCHo1 μHD (in words) [2]: in the nanomolar range; Kd ([2]; Eps15 fragment in cell titrated with μHD (Experiment 37a)): 0.19 ± 0.09 µM; Kd [2, 12]: 0.27 ± 0.1 µM; -TΔS [2, 12]: 2.81 kJ/mol; ΔG [2, 12]: -37.51 kJ/mol; ΔH [2, 12]: -40.33 ± 1.59 kJ/mol; -TΔS [2, 13]: -6.577 kJ/mol; ΔG [2, 13]: -38.32 kJ/mol; ΔH [2, 13]: -31.74 ± 1.67 kJ/mol; N (binding ratio of Eps15 fragment to FCHo1 μHD) [2, 12]: 0.59 ± 0.02; N (binding ratio of Eps15 fragment to FCHo1 μHD) [2, 13]: 0.70 ± 0.03; Strength of affinity ([2]; human FCHo1 µHD (aa623–889), Supplementary Table 3, This study): high
Eps15-661–720: Eps15 fragment spanning residues 661 to 720, 4 DPF motifs (QSTDPFATSSTDPFSAANNSSITSVETLKHNDPFAPGGTVVAASDSATDPFASVFGNESF; UniProt P42566 661-720, looked up, fragment) | – | – | – | – | – | – | – | – | – | – | – | – | – | – | Kd for the α-adaptin appendage domain (in words) [3]: in the nanomolar range; Kd ([3]; 25 °C, appendage domain titrated with Eps15 fragment, single-site model, global fit of two runs, ± 68.3% confidence interval): 0.27 ± 0.13 µM; -TΔS ([3]; 25 °C, single-site model): 24.94 kJ/mol; ΔG ([3]; 25 °C, single-site model): -37.53 kJ/mol; ΔH ([3]; 25 °C, single-site model, ± 68.3% confidence interval): -62.471 ± 7.916 kJ/mol
Eps15-530–896 (domain or fragment, human, UniProt P42566-1 530-896, looked up, also called C-terminal fragment of human Eps15; source: E. coli, purified (Ni Sepharose, thrombin, Glutathione Sepharose, 3C protease, Superdex 200); not shown: GST, N-terminal, cleaved; His tag, C-terminal, cleaved) STSSSETANLNEHVEGQSNLESEPIHQESPARSSPELLPSGVTDENEVTTAVTEKVCSELDNNRHSKEEDPFNVDSSSLTGPVADTNLDFFQSDPFVGSDPFKDDPFGKIDPFGGDPFKGSDPFASDCFFRQSTDPFATSSTDPFSAANNSSITSVETLKHNDPFAPGGTVVAASDSATDPFASVFGNESFGGGFADFSTLSKVNNEDPFRSATSSSVSNVVITKNVFEETSVKSEDEPPALPPKIGTPTRPCPLPPGKRSINKLDSPDPFKLNDPFQPFPGNDSPKEKDPEIFCDPFTSATTTTNKEADPSNFANFSAYPSEEDMIEWAKRESEREEEQRLARLNQQEQEDLELAIALSKSEISEA | 27.3 ± 15.7 | 4.5 ± 2.2 | 15.39 | -30.53 | -45.915 ± 2.11 | -17.98 | -39.22 | -21.24 ± 1.29 | 11.48 | -26.05 | -37.53 ± 6.874 kJ/mol | 0.76 ± 0.11 | 0.96 ± 0.04 | 0.96 ± 0.04 | Kd of the high-affinity site (two-site model) [4]: ~0.13 µM
